Patent publication US20050227306

Legend:
[1] = system: His6-tetraCys-X-MBP protease substrate 24-F [MBP: P0AEX9]
[2] = system: His6-tetraCys-X-MBP protease substrate 25-F [MBP: P0AEX9]
[3] = system: His6-tetraCys-X-MBP protease substrate 21-F [MBP: P0AEX9]
[4] = system: His6-tetraCys-X-MBP protease substrate 22-F [MBP: P0AEX9]
[5] = system: His6-tetraCys-X-MBP protease substrate 26-F [MBP: P0AEX9]
[6] = system: His6-tetraCys-X-MBP protease substrate 23-F [MBP: P0AEX9]

| Substance | relative rate of reaction (initial proteolysis rate by fluorescence anisotropy, normalised to the cognate substrate) (relative rate) [1] | relative rate of reaction (initial proteolysis rate by fluorescence anisotropy, normalised to the cognate substrate) [2] | relative rate of reaction (initial proteolysis rate by fluorescence anisotropy, normalised to the cognate substrate) (relative rate) [3] | relative rate of reaction (initial proteolysis rate by fluorescence anisotropy, normalised to the cognate substrate) (relative rate) [4] | relative rate of reaction (initial proteolysis rate by fluorescence anisotropy, normalised to the cognate substrate) (relative rate) [5] | relative rate of reaction (initial proteolysis rate by fluorescence anisotropy, normalised to the cognate substrate) (relative rate) [6] | specific reaction rate (per supplier's unit of enzyme) [6] | SDS-PAGE with Coomassie staining after overnight incubation [1] | specific reaction rate (per supplier's unit of enzyme) [1] | SDS-PAGE with Coomassie staining after overnight incubation [2] | relative rate of reaction (initial proteolysis rate by fluorescence anisotropy, normalised to the cognate substrate) (relative rate) [2] | SDS-PAGE with Coomassie staining after overnight incubation [3] | SDS-PAGE with Coomassie staining after overnight incubation [4] | SDS-PAGE with Coomassie staining after overnight incubation [6] | specific reaction rate (per supplier's unit of enzyme) [2] | specific reaction rate (slope of initial proteolysis rate versus protease concentration) [2] | specific reaction rate (slope of initial proteolysis rate versus protease concentration) [4] | relative rate of reaction (initial proteolysis rate by fluorescence anisotropy, normalised to the cognate substrate) [5] |
| --- | --- | --- | --- | --- | --- | --- | --- | --- | --- | --- | --- | --- | --- | --- | --- | --- | --- | --- |
| Enterokinase | 0.2 | n.d. (not detected) | 0.5 | 1.3 | 1 | 1 | enterokinase, 0.130±0.007 | – | – | – | – | – | – | – | – | – | – | – |
| Factor Xa | 1 | – | 0.04 | 0.5 | 0 | 0.01 | – | little or no intact fusion protein was detected after an overnight incubation | Factor Xa, 0.37±0.03 | formation of a small amount of a small molecular-weight band | 0.05 | formation of a small amount of a small molecular-weight band | little or no intact fusion protein was detected after an overnight incubation | formation of a small amount of a small molecular-weight band | – | – | – | – |
| Thrombin | 0 | – | 0 | 0.4 | 0 | -0.02 | – | – | – | – | 1 | – | – | – | thrombin, 0.20±0.02 | thrombin; 240±20 | – | – |
| Trypsin | 0.4 | – | 0.3 | 1 | – | 0.1 | – | – | – | – | 0.5 | – | – | – | – | – | trypsin; 760±60 | n.d. (not detected) |
